Source: publication PMC3903573, “Effects of an Anticarcinogenic Bowman-Birk Protease Inhibitor on Purified 20S Proteasome and MCF-7 Breast Cancer Cells” (PLoS ONE, 2014)

How the values were obtained:
[1] = molecular target: the molecule itself; test: dynamic light scattering; BTCI alone, 15 µM, pH 7.5; hydrodynamic diameter 4.5 nm
[2] = molecular target: 20S proteasome purified from horse erythrocytes (horse); test: enzyme inhibition assay (fluorogenic substrates, Morrison equation); 20S proteasome 2.0 µg/mL with BTCI 2.0 to 30.0 µg/mL and 62.5 µg/mL fluorogenic substrate; 20.0 mM Tris-HCl pH 7.5, 1.0 mM EDTA, 1.0 mM NaN3, 1.0 mM DTT; room temperature, 60 min; Ki fitted with GRAFIT; conditions: both partners purified

B1: Black-eyed pea Trypsin/Chymotrypsin Inhibitor (natural protein, Vigna unguiculata (Cowpea), UniProt P17734 1-83, looked up)
chain: SGHHXXSTXXASXSSKPCCRXCACTKSIPPXCRCSXVRLNSCHSACKSCACTFSIPAXCFCGXIXXFCYKPCKSSHSXXXXWN
modifications: X not resolved here
notes: 83 amino acid residues, seven disulfide bonds, 9.1 kDa; reactive sites Lys26 (trypsin) and Phe53 (chymotrypsin); By DLS a trimer at 15 µM and pH 7.5; also called BTCI; source: isolated from Vigna unguiculata (Cowpea) seeds, purified as previously described [29]
stoichiometry N [1]: 3 | KI or Kd, caspase-like site [2]: 1400 nM | KI or Kd, chymotrypsin-like site [2]: 700 nM | KI or Kd, trypsin-like site [2]: 100 nM
